# According to EP1343909B1:
# Biological target: plasminogen
# Assay: cell-based or functional assay
substance,measurement,value
Bacteriophages which harbored K2S on gp3 (K2S-φ) (from UniProt P00750 209-562),fibrinogen-dependent enzymatic activity (amidolytic assay with plasminogen and S-2251),< 0.25 IU/ml
